Assay results reported in US12295987B2, “Method of using a GIP/GLP1 co-agonist for diabetes” (Eli Lilly and Company, priority 2018, dated 2025).

Target: T1, human gastric inhibitory peptide receptor (hGIPR) (Homo sapiens, UniProt P48546)
T1 construct: expressed in transfected cells; host or cells: HEK293
T1 sequence (P48546 22-466): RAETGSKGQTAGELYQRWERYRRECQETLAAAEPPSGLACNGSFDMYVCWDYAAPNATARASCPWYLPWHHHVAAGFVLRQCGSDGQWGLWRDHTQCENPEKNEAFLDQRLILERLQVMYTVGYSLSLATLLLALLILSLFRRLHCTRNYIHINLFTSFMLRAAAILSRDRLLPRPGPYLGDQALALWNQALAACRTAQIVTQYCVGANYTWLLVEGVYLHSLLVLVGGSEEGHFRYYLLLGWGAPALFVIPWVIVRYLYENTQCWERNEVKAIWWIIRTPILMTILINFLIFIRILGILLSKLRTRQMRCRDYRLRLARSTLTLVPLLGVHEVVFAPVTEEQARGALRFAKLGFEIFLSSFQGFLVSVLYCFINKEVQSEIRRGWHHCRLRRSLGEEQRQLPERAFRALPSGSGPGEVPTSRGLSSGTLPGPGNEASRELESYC
Test: cAMP pharmacological functional assay in presence of 0.1% casein, hGIPR
Format: cell-based
Settings: ratio of hGIPR to hGLP1R cAMP EC50 ratios

Substance | [hGIPR/hGLP1R] EC50 Ratio
Y-Aib-EGT-αMeF(2F)-TSDYSI-αMeL-LDEK((2-[2-(2-Amino-ethoxy)-ethoxy]-acetyl)2-(γGlu)-CO—(CH2)18—CO2H)AQ-Aib-EFIVYLIEGGPSSGAPPPS-NH2 (YXEGTXTSDYSIXLDEKAQXEFIVYLIEGGPSSGAPPPS; Aib, αMeF(2F), αMeL; acylated lysine C20 diacid; amide; (2)..(2) Xaa at position 2 is Aib; (6)..(6) Xaa at position 6 is alpha-methyl-Phe(2F); (13)..(13) Xaa at position 13 is alpha-methyl-Leu; MOD_RES (17)..(17) Lys at position 17 is chemically modified by conjugation of the epsilon-amino group of the Lys side chain with (2-[2-(2-amino-ethoxy)-ethoxy]-acetyl)2-(gamma-Glu)-CO-(CH2)18- CO2H; (20)..(20) Xaa at position 20 is Aib; MOD_RES (39)..(39) Ser a) [Peptide 149] | 3.76
Y-Aib-EGT-αMeF(2F)-TSDYSI-αMeL-LDEK((2-[2-(2-Amino-ethoxy)-ethoxy]-acetyl)2-(εK)-CO—(CH2)18—CO2H)AQ-Aib-EFI-(D-Glu)-YLIEGGPSSGAPPPS-NH2 (YXEGTXTSDYSIXLDEKAQXEFIXYLIEGGPSSGAPPPS; Aib, αMeF(2F), αMeL, D-Glu; εK-lipidated K; amide; (2)..(2) Xaa at position 2 is Aib; (6)..(6) Xaa at position 6 is alpha-methyl-Phe(2F); (13)..(13) Xaa at position 13 is alpha-methyl-Leu; MOD_RES (17)..(17) Lys at position 17 is chemically modified by conjugation of the epsilon-amino group of the Lys side chain with (2-[2-(2-amino-ethoxy)-ethoxy]-acetyl)2-(epsilon-Lys)-CO-(CH2)18- CO2H; (20)..(20) Xaa at position 20 is Aib; (24)..(24) Xaa at posi) [Peptide 216] | 3.75
Y-Aib-EGT-αMeF(2F)-TSDYSI-αMeL-LDEK((2-[2-(2-Amino-ethoxy)-ethoxy]-acetyl)2-CO—(CH2)16—CO2H)AQ-Aib-EFI-(D-Glu)-YLIEGGPSSGAPPPS-NH2 (YXEGTXTSDYSIXLDEKAQXEFIXYLIEGGPSSGAPPPS; Aib, αMeF(2F), αMeL, D-Glu; lipidated K; amide; (2)..(2) Xaa at position 2 is Aib; (6)..(6) Xaa at position 6 is alpha-methyl-Phe(2F); (13)..(13) Xaa at position 13 is alpha-methyl-Leu; MOD_RES (17)..(17) Lys at position 17 is chemically modified by conjugation of the epsilon-amino group of the Lys side chain with (2-[2-(2-amino-ethoxy)-ethoxy]-acetyl)2-CO-(CH2)16-CO2H; (20)..(20) Xaa at position 20 is Aib; (24)..(24) Xaa at position 24 is D-Gl) [Peptide 214] | 3.98
Y-Aib-EGT-αMeF(2F)-TSDYSI-αMeL-LDEK((2-[2-(2-Amino-ethoxy)-ethoxy]-acetyl)2-CO—(CH2)18—CO2H)AQ-Aib-EFI-(D-Glu)-YLIEGGPSSGAPPPS-NH2 (YXEGTXTSDYSIXLDEKAQXEFIXYLIEGGPSSGAPPPS; Aib, αMeF(2F), αMeL, D-Glu; lipidated K; amide; (2)..(2) Xaa at position 2 is Aib; (6)..(6) Xaa at position 6 is alpha-methyl-Phe(2F); (13)..(13) Xaa at position 13 is alpha-methyl-Leu; MOD_RES (17)..(17) Lys at position 17 is chemically modified by conjugation of the epsilon-amino group of the Lys side chain with (2-[2-(2-amino-ethoxy)-ethoxy]-acetyl)2-CO-(CH2)18-CO2H; (20)..(20) Xaa at position 20 is Aib; (24)..(24) Xaa at position 24 is D-Gl) [Peptide 215] | 4.34
